# Reference: patent US20230137032A1 (GlaxoSmithKline, published 2023)
# “And” between values parts separate entries of the source, which are not always exact repeats. Identical values can stand only once.
# T1: recombinant human BCMA, commercial (US Biological, B0410) (human, UniProt Q02223 5-54, limits assumed)
# T1 construct: also called commercial human BCMA; Human commercial BCMA
# T1 chain (looked up): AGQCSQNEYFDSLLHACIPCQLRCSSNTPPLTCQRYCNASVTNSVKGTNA
# T2: human BCMA expressed on cells (human, UniProt Q02223 1-184)
# T2 sequence (looked up): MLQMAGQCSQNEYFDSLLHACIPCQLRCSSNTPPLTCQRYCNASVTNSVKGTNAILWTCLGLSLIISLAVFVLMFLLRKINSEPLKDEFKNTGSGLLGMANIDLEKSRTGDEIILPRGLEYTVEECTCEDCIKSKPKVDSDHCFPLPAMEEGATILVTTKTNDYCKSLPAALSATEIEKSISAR
# Tests used:
# [1] = biological target: T3, recombinant human BCMA Fc 4-53 (human); experiment: ELISA, neutralisation of ligand binding to plate-coated BCMA Fc 4-53; competitor APRIL; competitor APRIL
# T3 construct: also called Human BCMA CD33-hBCMA ECD (4-53) TEV-Fc; recombinant BCMA
# Description: (§1) 96 well flat bottomed plates were coated overnight with 1 μg/mL solution of recombinant human BCMA Fc 4-53 in PBS. Following a wash step using 0.05% TWEEN20, plates were blocked with 2% Bovine Serum Albumin solution in PBS for 1 hour at room temperature. […] 40 μL of 2% BSA was added to the relevant control wells. […] Equivalent volume of 2% BSA was added to the relevant control wells. Plates were allowed to incubate for 2 hours at room temperature, after which they were washed as before. […] Following a wash step, 50 µL of a 1:4000 dilution of Streptavidin-HRP (Amersham RPN4401) was added to each well and incubated for 30 minutes at room temperature. The wash process was repeated again followed by the addition of […] of Tetramethylbenzidine substrate solution (T8665, Sigma) into each well. Plates were incubated for 20-25 minutes at room temperature, wrapped in foil. The reaction was stopped with the addition of […] of 1M H₂SO₄. Optical density was determined at 450 nm using Spectromax reader.
# [2] = biological target: T4, recombinant human BCMA, in house material (human, UniProt Q02223 4-53, limits assumed); experiment: ProteOn SPR run 2, antibody captured on Protein A, 25C; Run 2 (Table 9)
# T4 construct: also called Human in house BCMA; In house human BCMA
# Description: The initial screen of CA8 chimeric and humanised variants was carried out on the ProteOn XPR36 (Biorad). The method was as follows; Protein A was immobilised on a GLC chip (Biorad, Cat No: 176-5011) by primary amine coupling, CA8 variants were then captured on this surface and recombinant human BCMA (in house or commercial US Biological, B0410) materials (run 2 only)) passed over at 256, 64, 16, 4, 1 nM with a 0 nM injection (i.e. buffer alone) used to double reference the binding curves, the buffer used is the HBS-EP buffer. 50 mM NaOH was used to regenerate the capture surface. The data was fitted to the 1:1 model using the analysis software inherent to the ProteOn XPR36. […] Both runs were carried out at 25° C.
# [3] = biological target: T3, recombinant human BCMA Fc 4-53; experiment: ELISA, neutralisation of ligand binding to plate-coated BCMA Fc 4-53; competitor BAFF; competitor BAFF
# Description: as §1
# [4] = biological target: T3, recombinant human BCMA Fc 4-53; experiment: competition ELISA: binding of recombinant human APRIL to coated recombinant human BCMA Fc 4-53, biotinylated anti-APRIL and streptavidin-HRP, % of control
# Description: as §1
# [5] = biological target: T5, recombinant cyno BCMA, in house material (cyno, UniProt A0A2K5UD97 4-52); experiment: Biacore T100, antibody captured on Protein A, 37C
# T5 construct: also called Cyno in house BCMA
# [6] = biological target: T1, recombinant human BCMA, commercial (US …); experiment: Biacore T100, antibody captured on Protein A, 37C
# [7] = biological target: T5, recombinant cyno BCMA, in house material; experiment: ProteOn SPR run 2, antibody captured on Protein A, 25C
# [8] = biological target: T1, recombinant human BCMA, commercial (US …); experiment: as above
# [9] = biological target: T1, recombinant human BCMA, commercial (US …); experiment: Biacore T100, antibody captured on Protein A, 37C, experiment 1
# Description: (§2) Protein A was immobilised on a CMS chip (GE Healthcare, Cat No: BR-1005-30) by primary amine coupling and this surface was then used to capture the antibody molecules. Recombinant human BCMA (US Biological, B0410) was used as analyte at 256 nM, 64 nM, 16 nM, 4 nM and 1 nM. Regeneration of the capture surface was carried out using 50 mM NaOH. All binding curves were double referenced with a buffer injection (i.e. 0 nM) the data was fitted to the using the 1:1 model inherent to T100 evaluation software. The run was carried out at 25° C. and 37° C. for experiment 1 and only 37° C. for experiment 2 using HBS-EP as the running buffer.
# [10] = biological target: T6, cyno BCMA-Fc (cyno); experiment: ELISA on coated cyno BCMA-Fc, anti-human IgG HRP, TMB
# T6 construct: also called Cyno BCMA CD33 cyno BCMA ECD (4-52) TEV-Fc; recombinant cyno BCMA
# Description: Human BCMA-Fc and cyno BCMA-Fc were coated to ELISA plates and the plates were blocked using BSA to reduce non specific binding. CA8 chimeric antibodies were added in a concentration range from 5 ug/ml to 0.1 ug/ml to the human and cyno BCMA coated ELISA plates. […] HRP substrate (TMB) was added to develop the ELISA.
# [11] = biological target: T1, recombinant human BCMA, commercial (US …); experiment: Biacore T100, antibody captured on Protein A, 25C, experiment 1
# Description: as §2
# [12] = biological target: T3, recombinant human BCMA Fc 4-53; experiment: competition ELISA: binding of recombinant human BAFF to coated recombinant human BCMA Fc 4-53, biotinylated anti-BAFF and streptavidin-HRP, % of control
# Description: as §1
# [13] = biological target: T2, human BCMA expressed on cells; experiment: cell-based or functional assay
binder,measurement,setting,value
"CA8 chimera antibody (human chimeric CA8) (antibody, V domains shown, also called Chimera CA8; CA8 chimeric antibody) VH: EVQLQQSGAVLARPGASVKMSCKGSGYTFTNYWMHWVKQRPGQGLEWIGATYRGHSDTYYNQKFKGKAKLTAVTSTSTAYMELSSLTNEDSAVYYCTRGAIYNGYDVLDNWGQGTLVTVSS VL: DIQLTQTTSSLSASLGDRVTISCSASQDISNYLNWYQQKPDGTVELVIYYTSNLHSGVPSRFSGSGSGTDYSLTIGYLEPEDVATYYCQQYRKLPWTFGGGSKLEIKR",EC50,[1],0.773 µg/mL
same,Kd,[2],0.412 nM
same,EC50,[3],0.695 µg/mL
same,IC50 (read off the curve),[4],~0.8 µg/mL
same,Kd,[5],0.305 nM
same,Kd,[6],0.036 nM
same,Kd,[7],2.06 nM
same,Kd,[8],0.139 nM
same,Kd,[9],0.051 nM
same,binding result,[10],binds
same,Kd,[11],0.14 nM
same,IC50 (read off the curve),[12],~0.7 µg/mL
same,"APRIL induced IC50 (phosphorylated NFkappaB in H-929 cells, MSD assay)",[13],38.5 ug/ml and 257 nM
same,"BAFF induced IC50 (phosphorylated NFkappaB in H-929 cells, MSD assay)",[13],1.5 ug/ml and 10 nM
